Data on two molecules can be found in PMC8609364, “A Selective Tether Recruits Activated Response Regulator CheB to Its Chemoreceptor Substrate” (mBio, 2021).

The target in assay [1] is Tar4Q L378C, E. coli aspartate chemoreceptor Tar, all-glutaminyl form with carboxyl-terminal pentapeptide, … (E. coli, UniProt P07017 1-553, L378C, biotinylated at L378C). Description: SPR.
In assay [2] the target is Tar4QΔpp-6H L378C, E. coli Tar lacking the carboxyl-terminal pentapeptide, all-glutaminyl form, homodimer in … (E. coli, UniProt P07017 1-553, L378C, biotinylated at L378C). Put plainly: SPR. Background: SPR reads the build-up and loss of mass on a sensor chip optically.
For assay [3], the system named is CheB methylesterase. Conditions: relative to phosphorylation; ref [8]; cited from earlier work. An excerpt: A high-activity form of the methylesterase/deamidase, designated CheB-P, is created by phosphorylation at a specific aspartyl residue in its N-terminal regulatory domain ([6][–][8]). However, activation is short-lived because of a high rate of autodephosphorylation ([7]), making it difficult to investigate binding of this activated form of the enzyme to chemoreceptors with confidence. Instead, we used a stable, functionally active mimic of phosphorylated CheB from Salmonella enterica subsp. enterica serovar Typhimurium (hereafter Salmonella) characterized by Saxl and coworkers ([26]). […] To investigate the role binding affinity might have in that activation, we measured binding of CheBC, a form of the methylesterase lacking the amino-terminal regulatory domain and linker, to pentapeptide-bearing and pentapeptide-lacking forms of Tar.

In assay [4] the test system is Tar4E (chemoreceptor Tar, all-glutamyl, pentapeptide-bearing). Description: CheB binding to pentapeptide-bearing Tar4E in Nanodiscs (biolayer interferometry). Also noted: species or system E. coli. Conditions: Tar 4E, pentapeptide yes, BLI; for dwell time (1/koff) / KA (equilibrium association constant) / kon (apparent association rate constant): pH 7.5, 2% BSA (plus 2 mM DTT for CheB and CheBc); for dwell time (1/koff): calculated from mean koff; for kon (apparent association rate constant): mean ± SD of at least three independent experiments. How it is done: We determined the kinetics of association and dissociation of methylesterase/deamidase CheB in its low- and high-activity form with the E. coli aspartate chemoreceptor Tar using biolayer interferometry ([22], [23]) and isolated receptor homodimers in Nanodiscs ([24], [25]). Apparent rate constants of association and dissociation were derived from global fits of time courses for binding and release (see Fig. S1 in the supplemental material). Equilibrium dissociation constants were calculated from those apparent rate constants.
Supplementary file : FIG S1 Example time courses of CheB binding to Tar. Time courses from five consecutive runs of CheB at different concentrations binding to immobilized Tar4E homodimers. For each time course, a sensor tip decorated with avidin to which were bound biotinylated Tar homodimers in Nanodiscs was placed in buffer and a baseline was established (240 to 255 s). The tip was then placed in a tube containing a solution of CheB at a specific concentration. After 30 s, at which time binding of CheB and Tar was close to an apparent equilibrium, the tip was switched to a tube of buffer, and dissociation was monitored. The global fit to the data is shown as a thin black line. Download FIG S1, TIF file, 1.9 MB.
E. coli CheB and Salmonella CheB D56C/C207S/C309S and D56C/S164A/C207S/C309S were purified as described previously ([11]). CheBC (amino acids [aa] 153 to 349) was purified using the procedure of West et al. ([40]), except that Bio-Gel P-60, was not used. CheB D56C/C207S/C309S and CheB D56C/S164A/C207S/C309S were modified to create a disulfide-linked phosphoryl group on D56C following the procedure described in reference but using a 10-fold molar excess of DTNB [Ellman’s reagent, 5,5′-disulfanediylbis(2-nitrobenzoic acid)] rather than 90-fold and a 50-fold molar excess Na3SPO3 rather than 1,000-fold. The extent of modification was 59% for the former and 60% for the latter determined by reversed phase chromatography essentially as described previously ([26]) and confirmed by Nano LC-Nanospray QTQF mass spectroscopy. Membrane scaffold protein MSP1D1(-) ([41]) was purified as described previously ([25]). Tar4E L378C, Tar4Q L378C, Tar4EΔpp-6H L378C, and Tar4QΔpp-6H L378C were purified, incorporated into Nanodiscs at approximately one receptor dimer per disc, and biotinylated at L378C as described previously ([23], [42]). […] These activities were confirmed for representative samples used in our analyses. Receptor-containing Nanodiscs were dialyzed into 50 mM Tris-HCl (pH 7.5), 0.5 mM EDTA, 10% (wt/vol) glycerol, and 100 mM NaCl. Prior to a binding experiment, the solution was changed using a spin desalting column to 50 mM Tris-HCl, 10% (wt/vol) glycerol, 5 mM MgCl2, and 50 mM KCl (pH 7.5).
Kinetics of CheB association and dissociation with Nanodisc-embedded Tar biotinylated at L378C were determined using biolayer interferometry ([22], [23]) as measured by a BLItz instrument (ForteBio, Menlo Park, CA, USA) and described in reference. Representative time course experiments are shown in Fig. S1 in the supplemental material. Measurements for CheB-P* and CheB-P*-I were in 50 mM Tris-HCl (pH 7.5), 10% (wt/vol) glycerol, 5 mM MgCl2, 50 mM KCl, and 2% (wt/vol) bovine serum albumin (BSA). Measurements for CheB and CheBc were in the same solution plus 2 mM dithiothreitol (DTT).
Using BLItz software, response curves were fit globally to a 1:1 binding model to yield apparent association rate constants (kon) and dissociation rate constants (koff). For analysis of complex patterns of binding, in which more than one binding reaction appeared to be contributing, for instance one that appeared saturable and another nonspecific, nonsaturable, the data were exported and fit globally to nonlinear exponential functions using OriginPro 2017. The best fits to the data were obtained using the following functions. […]

For assay [5], the target named is TarQEQE. The note with it: pulldown assay, pentapeptide at carboxyl terminus of TarQEQE in native membrane, unphosphorylated CheB; ref [21]; read-out: equilibrium dissociation constant [KD]; cited from earlier work.
The target of assay [6] is Tar4EΔpp-6H L378C, E. coli Tar lacking the carboxyl-terminal pentapeptide, all-glutamyl form, homodimer in … (E. coli, UniProt P07017 1-553, L378C, biotinylated at L378C). Put plainly: BLI; BLItz; biotinylated Tar homodimers in Nanodiscs held on an avidin sensor tip, CheB or CheBC in solution; 50 mM Tris-HCl pH 7.5, 10% glycerol, 5 mM MgCl2, 50 mM KCl, 2% BSA, 2 mM DTT; global fit, apparent rate constants, KD calculated from kon and koff. Conditions: both partners purified.

[7] abbreviates: calculated from mean kon and koff, propagated SD.

B1: CheBC, catalytic domain of E. coli CheB lacking the regulatory domain and linker (domain or fragment)
chain: LSSEKLIAIGASTGGTEAIRHVLQPLPLSSPALLITQHMPPGFTRSFADRLNKLCQIGVKEAEDGERVLPGHAYIAPGDRHMELSRSGANYQIKIHDGPAVNRHRPSVDVLFHSVAKQAGRNAVGVILTGMGNDGAAGMLAMRQAGAWTLAQNEASCVVFGMPREAINMGGVCEVVDLSQVSQQMLAKISAGQAIRI
Take B1: the figures for the koff in assay [1] and in assay [2] were 0.48 s⁻¹ and 0.58 s⁻¹, respectively. Besides, the “activation by deletion of the regulatory domain” value in assay [3] is reported as “not as effectively as by phosphorylation”. The “dwell time (1/koff)” value in assay [4] (propagated SD) was 2.1 ± 0.1 s. Also, the “KA (equilibrium association constant)” value in assay [4] (setting [7]) is recorded as 1.7 ± 0.4 10^3 M^-1. In assay [4], the “kon (apparent association rate constant)” value was 810 ± 200 M⁻¹ s⁻¹.

B2: methylesterase/deamidase CheB from E. coli, low-activity, unphosphorylated form (enzyme, UniProt P07330 1-349, looked up)
chain: MSKIRVLSVDDSALMRQIMTEIINSHSDMEMVATAPDPLVARDLIKKFNPDVLTLDVEMPRMDGLDFLEKLMRLRPMPVVMVSSLTGKGSEVTLRALELGAIDFVTKPQLGIREGMLAYNEMIAEKVRTAAKASLAAHKPLSAPTTLKAGPLLSSEKLIAIGASTGGTEAIRHVLQPLPLSSPALLITQHMPPGFTRSFADRLNKLCQIGVKEAEDGERVLPGHAYIAPGDRHMELSRSGANYQIKIHDGPAVNRHRPSVDVLFHSVAKQAGRNAVGVILTGMGNDGAAGMLAMRQAGAWTLAQNEASCVVFGMPREAINMGGVCEVVDLSQVSQQMLAKISAGQAIRI
notes: CheB methylesterase/deamidase of E. coli, unphosphorylated, from plasmid pCW/cheB; measured with 2 mM DTT in the buffer; also called low-activity CheB; unmodified CheB; source: E. coli K-12 RP3098 with pCW/cheB, purified
For B2, the figures for the koff in assay [1] and in assay [2] were 0.46 s⁻¹ and 0.65 s⁻¹, respectively. The Kd in assay [5] was approximately 150 µM; in assay [4] (50 mM Tris-HCl pH 7.5, 10% glycerol, 5 mM MgCl2, 50 mM KCl, 2% BSA (plus 2 mM DTT for CheB and CheBc), calculated from mean kon and koff, propagated SD, read-out: KD (equilibrium dissociation constant)), 230 ± 60 µM; in assay [6], 850 µM. Moreover, the “dwell time (1/koff)” value in assay [4] (propagated SD) was 2.8 ± 0.2 s. Moreover, the “KA (equilibrium association constant)” value in assay [4] (setting [7]) is recorded as 4.4 ± 1 10^3 M^-1. Also, the “kon (apparent association rate constant)” value in assay [4] is given as 1,600 ± 420 M^-1s^-1.

The term koff denotes the rate constant with which the complex falls apart. A high value points to fast dissociation.
